The target of test [1] is T1, sIGF-1R(1-903) (human, UniProt P08069 31-933).
T1 construct: also called soluble IGF-1R ectodomain
The experiment in a line: ITC series titration, G11 MAb into sIGF-1R(1-903) holding excess C06 MAb. On the procedure:
(§1) The protein solutions were prepared as described above for the MAb binding experiments. All ITC experiments were performed on an ITC₂₀₀ microcalorimeter (MicroCal, LLC) at 25° C. […] IGF-1R bispecific antibodies. A four minute equilibration period was used between all injections with an initial delay of 60 seconds. Numerical integration of the data was performed using the ITC data analysis software supplied by MicroCal (Origin). ΔHA° (T) values were calculated based on the difference between the average heat liberated/absorbed during the binding phase of the injections and the average heat of dilution found once the receptor, IGF-1R, was saturated with MAb or BsAb.
Both the dimeric receptor and the bivalent MAbs contain two potential binding sites.

Test [2] addresses T2, human IGF-1R on H322M non-small cell lung cancer cells (human, UniProt P08069 31-1367).
T2 construct: Endogenous receptor of the tumor cell line; also called cell surface IGF-1R
The test is described as follows: flow cytometry on H322M cells, anti-human Fc PE secondary (FIG. 55B). On the procedure: (§2) Cell lines were routinely cultured no greater than 20 passages. Flow cyotometric analysis of antibody binding to human cancer cells. Cells were lifted with cell dissociation buffer (Gibco catalog #13151-014), counted, washed and adjusted to 5×10⁶ cells/ml. Cells (2.5×10⁵; 50 uL) were added to each well of a 96-well round bottom plate (Costar #3799). Purified antibodies were tested at a starting concentration of 300 nM with serial half-log dilutions in FACS buffer. FACS buffer used throughout the assay was PBS (without Ca++/Mg++) containing 5% FBS. Samples were incubated on ice for 30 minutes, washed 3× with 200 uL FACS buffer and centrifuged at 1200 rpm for 3 minutes at 4° C. C2B8 (rituximab, IgG1) was used as a negative control. […] Samples were incubated for an additional 30 minutes on ice, shielded from light. Cells were washed as described above and resuspended in 100 μl FACS buffer containing propidium iodide (PI) for dead cell exclusion (BD Pharmingen, catalog# 51-66211E or 556463; use at 1:500 final in FACS buffer). Samples were run in triplicate using the FACSArray flow cytometer (Becton Dickinson) with 5000 live events collected per sample. Data analysis was performed using the GraphPad Prism version 5.0 software (GraphPad Software Inc., 11452 El Camino Real #215, San Diego, Calif. 92130). Results. […]

Test [3] deals with T2, human IGF-1R on H322M non-small cell …. The test is described as follows: cell-based or functional assay.
Test [4] has as its target T3, human IGF-1R(1-902)-His10 (human, UniProt P08069 31-932).
T3 construct: Bought from R&D Systems (305-GR-050); also called hIGF-1R-His10; hIGF-1R-His
The experiment in a line: SPR competition (Biacore 3000): soluble antibody titrated into 40 nM hIGF-1R-His, mixture injected over immobilized M14-G11. The method, then: Regeneration was achieved by three 10 μL injections of 0.1 M glycine, pH 2.0. 100% hIGF-1R-His binding to each antibody was determined by the signal above the baseline under mass transport-limiting conditions 60 seconds into the injection.
For orientation: SPR reads the build-up and loss of mass on a sensor chip optically.

The target of test [5] is T4, human IGF-1R(1-903)-Fc (human, UniProt P08069 31-933).
T4 construct: also called hIGF-1R-Fc; SDWT; not shown: human IgG1 Fc, C-terminal tag
The test is described as follows: ELISA, blocking of 320 nM IGF-1 His on biotinylated hIGF-1R-Fc. The method, then:
hIGF-1R-Fc was biotinylated using EZ-Link Sulfo-NHS-LC-Biotin according to the protocol provided by the manufacturer (Pierce Cat. No. 21335). Biotinylated human IGF-1R Fc (NB12453-9) at 5 μg/ml was added to the wells of SigmaScreen streptavidin-coated 96-well plates (Sigma, Cat. No. M5432-5EA) at 100 μL/well and incubated overnight at 2-8° C. The plates were then washed four times with 200 μL/well PBST. […] The dilutions were added to the plates in duplicate at 100 μL/well and the plates were incubated at RT for 1 hour. The plates were then washed four times with 200 μL/well PBST. An HRP-conjugated anti-Histag antibody (Penta-His HRP Conjugate, QIAGEN, Cat. No. 1014992) was diluted 1:1000 in PBST and added to plates at 100 μL/well, and the plates were incubated at RT for one hour. The plates were then washed four times with 200 μL/well PBST. SureBlue Reserve TMB Microwell Peroxidase Substrate (KPL, Cat. No. 53-00-01) was added to plates at 100 μL/well followed by 1% phosphoric acid at 100 μL/well once the desired reaction was observed. The absorbance of each well was determined at 450 nm, and the results were normalized and plotted against the log of antibody concentration.
Background: An ELISA detects its analyte on a solid surface through an enzyme-linked reagent.

Test [6] has as its target T2, human IGF-1R on H322M non-small cell …. The test is described as follows: flow cytometry on H322M cells. The method, then: as §2
(In general: Flow cytometry measures light scatter and fluorescence of single cells or particles in a stream.)

Test [7] addresses T4, human IGF-1R(1-903)-Fc. The experiment in a line: ELISA, blocking of IGF-2 His (640 nM by the table head) on biotinylated hIGF-1R-Fc.
Test [8] deals with T4, human IGF-1R(1-903)-Fc. The test is described as follows: IGF-1 blocking ELISA at 20 nM IGF-1 His on biotinylated hIGF-1R-Fc. On the procedure:
(§3) The dilutions were added to the plates in duplicate at 100 μL/well and the plates were incubated at RT for 1 hour. The plates were then washed four times with 200 μL/well PBST. An HRP-conjugated anti-Histag antibody (Penta-His HRP Conjugate, QIAGEN, Cat. No. 1014992) was diluted 1:1000 in PBST and added to plates at 100 μL/well, and the plates were incubated at RT for one hour. The plates were then washed four times with 200 μL/well PBST. SureBlue Reserve TMB Microwell Peroxidase Substrate (KPL, Cat. No. 53-00-01) was added to plates at 100 μL/well followed by 1% phosphoric acid at 100 μL/well once the desired reaction was observed. The absorbance of each well was determined at 450 nm, and the results were normalized and plotted against the log of antibody concentration.
(§4) Ligand Blocking Properties.

Test [9] has as its target T1, sIGF-1R(1-903). The experiment in a line: ITC, 25 °C, antibody into sIGF-1R(1-903). On the procedure: as §1, with “Isothermal Titration Calorimetry (ITC). […] The reagents were co-dialyzed against PBS, pH 7.2. The protein solutions were adjusted to the concentrations listed above by dilution using PBS dialysate. […] The” for “The”
Test [10] addresses T4, human IGF-1R(1-903)-Fc. The experiment in a line: IGF-2 blocking ELISA: antibody titrated in 640 nM IGF-2 His on biotinylated hIGF-1R-Fc on streptavidin plates, bound ligand detected with anti-His-HRP.
In test [11] the target is T1, sIGF-1R(1-903). The test is described as follows: equilibrium solution-phase SPR, free sIGF-1R(1-903) read on G11 surface.
The target of test [12] is T1, sIGF-1R(1-903). The test is described as follows: ITC, 25 °C; footnote a: affinity too high for accurate measurement. The method, then: as §1, with “Isothermal Titration Calorimetry (ITC). […] The reagents were co-dialyzed against PBS, pH 7.2. The protein solutions were adjusted to the concentrations listed above by dilution using PBS dialysate. […] The” for “The”
Test [13] deals with T2, human IGF-1R on H322M non-small cell …. The experiment in a line: flow cytometry on H322M cells, anti-human Fab PE secondary (FIG. 55A). On the procedure: as §2
In test [14] the target is T5, hIGF-1R-Fc mutant SD201 (D248A) (human, UniProt P08069 31-933).
T5 construct: not shown: human IgG1 Fc, C-terminal tag
The experiment in a line: SPR, Fab over captured mutant. On the procedure: (§5) Surface plasmon resonance (SPR) experiments were performed on a Biacore 3000 instrument set to 25° C. […] The antibody sensorchip surfaces were prepared by injecting each antibody (diluted 100 μg/mL in 10 mM Acetate, pH 4.0) over EDC/NHS-activated sensorchip surfaces according to the standard protocol of the manufacturer. […] Both hIGF-1R-Fc and mIGF-1R-Fc proteins oligomerize due to the incorporation of two separate homodimeric regions (IGF-1R and IgG1-Fc). […] After, completion of the receptor-Fc loading step, flow rates were elevated to 5 μl/min. […] Dissociation was measured for 7 minutes after the antibody injections were complete. Finally, the flow rate was elevated to 30 μL/min and the chip surfaces were regenerated by 2×10 μL injections of 0.1 M glycine, pH 2.

Test [15] concerns the target T6, hIGF-1R-Fc mutant SD202 (D250S) (human, UniProt P08069 31-933).
T6 construct: not shown: human IgG1 Fc, C-terminal tag
The experiment in a line: SPR, Fab over captured mutant. On the procedure:
as §5

The target in test [16] is T7, hIGF-1R-Fc mutant SD012 (E303G) (human, UniProt P08069 31-933).
T7 construct: not shown: human IgG1 Fc, C-terminal tag
The experiment in a line: SPR, Fab over captured mutant hIGF-1R-Fc. On the procedure:
as §5

Test [17] has as its target T8, hIGF-1R-Fc mutant SD008 (S257F) (human, UniProt P08069 31-933).
T8 construct: not shown: human IgG1 Fc, C-terminal tag
The test is described as follows: SPR, Fab over captured mutant hIGF-1R-Fc. The method, then: as §5

For test [18], the target named is T4, human IGF-1R(1-903)-Fc. The experiment in a line: IGF-1 blocking ELISA: antibody titrated in 320 nM IGF-1 His on biotinylated hIGF-1R-Fc on streptavidin plates, bound ligand detected with anti-His-HRP. The method, then: as §3, §4
The target of test [19] is T9, hIGF-1R-Fc mutant SD207 (G265Y) (human, UniProt P08069 31-933).
T9 construct: not shown: human IgG1 Fc, C-terminal tag
The experiment in a line: SPR, antibody over captured mutant. On the procedure:
as §5

The target in test [20] is T10, hIGF-1R-Fc mutant SD203 (N254A) (human, UniProt P08069 31-933).
T10 construct: not shown: human IgG1 Fc, C-terminal tag
The experiment in a line: SPR, antibody over captured mutant. The method, then:
as §5

Where only a bound is given, the exact number is not on record here.

What is called EC50 is the concentration needed to bring the measured effect to its halfway point. Read a high EC50 as a need for much substance. By IC50 is commonly meant the midpoint of a concentration-inhibition curve. Usually Kd stands for the free concentration of one partner at which half of the binding sites on the other are occupied at equilibrium, for simple one-to-one binding. Read a low Kd as tighter binding.

T2 sequence (P08069 31-1367, stated change not applied): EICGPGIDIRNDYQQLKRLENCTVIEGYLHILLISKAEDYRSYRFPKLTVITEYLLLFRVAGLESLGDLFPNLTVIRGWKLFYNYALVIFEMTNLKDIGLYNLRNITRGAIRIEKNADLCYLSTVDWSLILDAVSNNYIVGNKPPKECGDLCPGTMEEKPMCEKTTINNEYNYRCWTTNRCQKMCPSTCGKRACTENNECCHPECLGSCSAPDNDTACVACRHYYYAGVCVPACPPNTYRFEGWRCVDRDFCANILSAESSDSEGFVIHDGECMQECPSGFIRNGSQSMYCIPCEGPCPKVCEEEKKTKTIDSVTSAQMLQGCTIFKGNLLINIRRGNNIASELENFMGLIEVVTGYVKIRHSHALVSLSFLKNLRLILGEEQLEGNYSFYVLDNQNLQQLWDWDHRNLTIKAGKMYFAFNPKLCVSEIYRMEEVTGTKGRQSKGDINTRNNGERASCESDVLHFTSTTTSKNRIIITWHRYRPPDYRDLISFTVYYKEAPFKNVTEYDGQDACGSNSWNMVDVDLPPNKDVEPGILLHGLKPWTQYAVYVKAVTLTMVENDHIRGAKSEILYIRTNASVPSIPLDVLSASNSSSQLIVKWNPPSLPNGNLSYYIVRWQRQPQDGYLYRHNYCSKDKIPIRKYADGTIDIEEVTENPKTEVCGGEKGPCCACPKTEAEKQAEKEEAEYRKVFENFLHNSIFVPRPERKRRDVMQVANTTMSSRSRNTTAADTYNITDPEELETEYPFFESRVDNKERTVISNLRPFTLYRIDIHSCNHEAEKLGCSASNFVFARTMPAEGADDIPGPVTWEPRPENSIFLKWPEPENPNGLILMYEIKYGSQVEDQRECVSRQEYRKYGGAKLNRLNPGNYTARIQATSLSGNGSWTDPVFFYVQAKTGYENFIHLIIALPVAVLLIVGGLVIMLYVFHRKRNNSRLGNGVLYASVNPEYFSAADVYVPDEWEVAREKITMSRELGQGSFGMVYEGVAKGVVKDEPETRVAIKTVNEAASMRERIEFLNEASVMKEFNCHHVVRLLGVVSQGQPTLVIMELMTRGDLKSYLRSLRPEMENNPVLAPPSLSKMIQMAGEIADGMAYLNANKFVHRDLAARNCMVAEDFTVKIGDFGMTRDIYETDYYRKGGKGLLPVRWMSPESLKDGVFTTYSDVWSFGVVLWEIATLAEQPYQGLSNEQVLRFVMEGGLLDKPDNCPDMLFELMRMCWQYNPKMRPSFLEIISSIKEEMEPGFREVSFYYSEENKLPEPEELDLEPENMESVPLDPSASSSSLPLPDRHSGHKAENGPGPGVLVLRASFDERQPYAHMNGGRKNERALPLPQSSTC
T1 sequence (P08069 31-933): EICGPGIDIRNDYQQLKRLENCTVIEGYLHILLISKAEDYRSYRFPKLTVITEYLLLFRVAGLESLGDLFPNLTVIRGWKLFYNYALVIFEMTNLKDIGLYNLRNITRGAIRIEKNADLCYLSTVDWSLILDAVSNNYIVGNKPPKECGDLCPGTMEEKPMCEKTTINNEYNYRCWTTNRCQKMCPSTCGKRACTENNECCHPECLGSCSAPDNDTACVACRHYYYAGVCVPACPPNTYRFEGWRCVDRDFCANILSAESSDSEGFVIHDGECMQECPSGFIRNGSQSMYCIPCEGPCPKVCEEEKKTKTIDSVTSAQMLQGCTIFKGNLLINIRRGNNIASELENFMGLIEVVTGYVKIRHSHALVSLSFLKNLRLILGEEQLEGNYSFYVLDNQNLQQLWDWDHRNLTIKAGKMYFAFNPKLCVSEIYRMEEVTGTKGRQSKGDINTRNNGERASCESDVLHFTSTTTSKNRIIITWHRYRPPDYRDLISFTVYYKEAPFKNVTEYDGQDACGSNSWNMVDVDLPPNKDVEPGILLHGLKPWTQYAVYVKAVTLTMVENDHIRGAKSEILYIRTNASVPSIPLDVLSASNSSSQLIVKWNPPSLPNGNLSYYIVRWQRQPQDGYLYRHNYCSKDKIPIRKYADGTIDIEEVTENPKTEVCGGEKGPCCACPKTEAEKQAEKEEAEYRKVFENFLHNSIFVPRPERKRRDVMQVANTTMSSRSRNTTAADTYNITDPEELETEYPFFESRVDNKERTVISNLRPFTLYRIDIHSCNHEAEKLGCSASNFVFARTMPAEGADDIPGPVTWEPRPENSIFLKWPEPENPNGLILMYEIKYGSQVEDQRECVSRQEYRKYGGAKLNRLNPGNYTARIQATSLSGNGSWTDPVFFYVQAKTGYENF
T4 sequence (P08069 31-933): as above
T9 sequence (P08069 31-933 G295Y): as the sequence (P08069 31-933) above, with G265Y counted along it
T7 sequence (P08069 31-933 E333G): as the sequence (P08069 31-933) above, with E303G counted along it
T10 sequence (P08069 31-933 N284A): as the sequence (P08069 31-933) above, with N254A counted along it
T8 sequence (P08069 31-933 S287F): as the sequence (P08069 31-933) above, with S257F counted along it
T3 sequence (P08069 other isoform, or with tags, fused parts or gaps): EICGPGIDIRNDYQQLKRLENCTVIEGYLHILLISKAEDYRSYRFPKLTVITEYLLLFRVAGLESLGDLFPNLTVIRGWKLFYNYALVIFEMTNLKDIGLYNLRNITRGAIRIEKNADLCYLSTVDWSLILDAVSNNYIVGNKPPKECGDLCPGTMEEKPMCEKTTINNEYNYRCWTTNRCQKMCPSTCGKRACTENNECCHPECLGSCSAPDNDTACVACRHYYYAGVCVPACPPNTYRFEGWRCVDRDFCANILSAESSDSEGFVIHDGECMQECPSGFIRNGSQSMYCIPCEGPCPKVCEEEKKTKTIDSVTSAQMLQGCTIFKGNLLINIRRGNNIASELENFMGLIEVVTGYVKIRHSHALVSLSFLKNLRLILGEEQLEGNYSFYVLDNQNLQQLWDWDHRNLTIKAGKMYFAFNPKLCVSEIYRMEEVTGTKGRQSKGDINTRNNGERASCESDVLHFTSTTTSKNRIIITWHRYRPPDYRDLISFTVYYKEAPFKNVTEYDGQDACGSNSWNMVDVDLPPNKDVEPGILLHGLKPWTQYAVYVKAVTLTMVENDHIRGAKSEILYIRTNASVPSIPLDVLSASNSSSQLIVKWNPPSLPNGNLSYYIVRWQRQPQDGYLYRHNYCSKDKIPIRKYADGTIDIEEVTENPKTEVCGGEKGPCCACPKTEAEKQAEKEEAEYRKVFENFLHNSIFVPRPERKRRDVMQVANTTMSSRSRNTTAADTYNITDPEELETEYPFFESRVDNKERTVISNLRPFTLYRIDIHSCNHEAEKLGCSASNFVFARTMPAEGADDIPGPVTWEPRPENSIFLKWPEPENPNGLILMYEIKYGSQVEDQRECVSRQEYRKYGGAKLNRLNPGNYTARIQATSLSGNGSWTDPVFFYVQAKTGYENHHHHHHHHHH
T5 sequence (P08069 31-933 D278A): as the sequence (P08069 31-933) above, with D248A counted along it
T6 sequence (P08069 31-933 D280S): as the sequence (P08069 31-933) above, with D250S counted along it

B1: M14-G11 antibody (antibody, V domains shown)
VH: EVQLLESGGGLVQPGGSLRLSCAASGFTFSNYPMYWVRQAPGKGLEWVSRISSSGGRTVYADSVKGRFTISRDNSKNTLYLQMNSLRAEDTAVYYCARDRWSRSAAEYGLGGYWGQGTLVTVSS
VL: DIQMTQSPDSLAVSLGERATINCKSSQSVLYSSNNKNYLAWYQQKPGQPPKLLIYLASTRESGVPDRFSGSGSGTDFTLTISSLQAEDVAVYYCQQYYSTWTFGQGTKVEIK
notes: Fully human full-length antibody; also called M14.G11.G4.P.agly; G11.G4P.agly
For B1, the results for the “ΔH°” value in the test with sIGF-1R(1-903) [1] and with sIGF-1R(1-903) [9] were -16.2 kcal/mol and -26.6 kcal/mol, respectively. For the same molecule, the results for the EC50 in test [2], in [6] and in test [13] were 0.72 nM, below 1 nM and 0.44 nM, respectively. Also, in test [3], the “reduction of surface IGF-1R after 24 hours (FACS, H322M cells)” value is above 70%. In addition, the “IC50 (read off the curve)” value in test [4] is around 20 nM; in the test with human IGF-1R(1-903)-Fc [8], around 2 nM; with human IGF-1R(1-903)-Fc [10], around 2 nM. Further, the figures for the IC50 in the test with human IGF-1R(1-903)-Fc [5] and in the test with human IGF-1R(1-903)-Fc [7] were 13 nM and 7.9 nM, respectively. For the same molecule, the Kd is 0.1 nM with sIGF-1R(1-903) [11] and 6 nM in the test with sIGF-1R(1-903) [12]. In addition, the “n (#G11 specific binding sites)” value with sIGF-1R(1-903) [11] is 1.1. In addition, in the test with sIGF-1R(1-903) [12], the “-TΔS” value was 14.8 kcal/mol. In the test with sIGF-1R(1-903) [12], this molecule gave a ΔG of -11.2 kcal/mol.

B2: M14-G11 Fab (Fab, V domains shown)
VH: B1 VH
VL: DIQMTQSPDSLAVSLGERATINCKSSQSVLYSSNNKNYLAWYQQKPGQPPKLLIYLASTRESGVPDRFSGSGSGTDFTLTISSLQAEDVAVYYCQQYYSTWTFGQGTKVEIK
notes: Enzymatically derived Fab
B2: the binding result in test [14] and in [15] was “no binding (tested: up to 30 nM Fab)” in each case. Further, the “fold loss in affinity (KD) against wild type” value in test [16] and in [17] was around 3 fold each time. The “IC50 (read off the curve)” value with human IGF-1R(1-903)-Fc [18] was around 6 nM. In the test with sIGF-1R(1-903) [11], binding was put at a Kd of 4 nM. The “n (#G11 specific binding sites)” value with sIGF-1R(1-903) [11] amounted to 1.7.

B3: P1E2 chimeric antibody (antibody, V domains shown)
VH: QVQLQQPGAELVKPGASVKLSCKASGYTFTSYWMHWVKQRPGQGLEWIGEINPTYGRSNYNEKFKSKATLTVDKSSSTAYMQLSSLTSEDSAVYYCARLVRLRYFDVWGAGTTVTVSS
VL: DIVMTQAAFSNPVTLGTSASISCRSSKSLLHSNGITYLYWYLQKPGQSPQLLIYQMSNLASGVPDRFSSSGSGTDFTLRISRVEAEDVGVYYCAQNLELPYTFGGGTKLEIK
notes: also called DE12 Chimera; P1E2.3B12 variable domains
On to B3, for which the binding result in test [19] and in test [20] was “no binding (tested: up to 30 nM antibody)” in each case.

Source of the values: patent US20090130105A1 (Biogen, published 2009).
